Results reported in patent US20070218463A1 (CANAG DIAGNOSTICS, published 2007).

Target: T1, Cathepsin L (Calbiochem) (UniProt P07711 114-333, limits assumed)
T1 construct: Bought enzyme
Experiment: complex binding, 2 ug SCCA protein mixed with cathepsin, 37 C 30 min, SDS-PAGE
Method: Complex binding of SCCA to substrates was performed by mixing 2 μg of SCCA-protein with 0.5 μg of Cathepsin G (Biodesign Int.) or 0.5 μg of […] Cathepsin L (Calbiochem) in 1×PBS buffer in a total volume of 4.5 μl. Samples were incubated at 37° C. for 30 minutes. To each sample, 0.5 μl of 10× Complex-buffer (20% SDS, 140 mM Mercaptoethanol, bromophenolblue) was added. Samples were incubated for 3 minutes at 95° C. and analyzed on a 12.5% SDS-PAGE-gel. The SCCA1/A2 fusion protein forms a complex with Cathepsin G but not with Cathepsin L showing that the fusion protein is functional and has the substrate specificity of SCCA2 (FIG. 8).

T1 sequence (P07711 114-333 limits assumed): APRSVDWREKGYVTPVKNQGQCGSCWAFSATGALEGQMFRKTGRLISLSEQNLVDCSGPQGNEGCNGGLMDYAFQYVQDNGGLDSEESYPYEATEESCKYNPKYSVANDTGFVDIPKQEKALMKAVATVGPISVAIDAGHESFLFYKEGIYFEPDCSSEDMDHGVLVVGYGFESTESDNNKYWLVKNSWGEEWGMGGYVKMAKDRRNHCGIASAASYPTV

binding result: no binding
B1: SCCA1/SCCA2 fusion protein (other)
chain: MNSLSEANTKFMFDLFQQFRKSKENNIFYSPISITSALGMVLLGAKDNTAQQIKKVLHFDQVTENTTGKAATYHVDRSGNVHHQFQKLLTEFNKSTDAYELKIANKLFGEKTYLFLQEYLDAIKKFYQTSVESVDFANAPEESRKKINSWVESQTNEKIKNLIPEGNIGSNTTLVLVNAIYFKGQWEKKFNKEDTKEEKFWPNKNTYKSIQMMRQYTSFHFASLEDVQAKVLEIPYKGKDLSMIVLLPNEIDGLQKLEEKLTAEKLMEWTSLQNMRETCVDLHLPRFKMEESYDLKDTLRTMGMVNIFNGDADLSGMTWSHGLSVSKVLHKAFVEVTEEGVEAAAATAVVVVELSSPSTNEEFCCNHPFLFFIRQNKTNSILFYGRFSSP
notes: Recombinant serpin fusion (exons 2-7 of SCCA1 fused to exon 8 of SCCA2); also called SCCA1/A2; SCCA1/A2 fusion protein
